Reference: publication PMC3524506

Tested on: OmpR-P-His6 (phosphorylated) (Yersinia enterocolitica O9 Ye9?)
Assay: EMSA
Conditions: 40 mM Tris-HCl pH 8.0, 100 mM KCl, 10 mM MgCl2, 5% glycerol, room temperature 30 min, scale: fold lower minimum binding amount than non-phosphorylated OmpR

Substance: inv promoter fragment 553 bp
- binding signal: 3
